The series can be described thus: protein stability index of a GFP-peptide fusion (GPS, HEK-293T) (PSI 1-6); higher = more stable. To be noted: c terminus: a fixed tail appended.

± gives the standard deviation.
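Also: 24-mer peptide tiles fused after GFP, lentivirally expressed, FACS-sorted into six equal bins by GFP/DsRed ratio, decoded by Illumina sequencing, PSI is the read-weighted mean bin number.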

On to CYAAMKKKIYAMGGGSYGKLFESV [GAN], for which the protein stability index was found to be 2.16 ± 0.39 (treatment: DMSO) and 2.23 ± 0.45 (treatment: MLN4924 1 uM, 8 h). In the case of CYKGHKEIAQYLLEKGADVNRKSV [FEM1C], the protein stability index (treatment: DMSO) is 3.1 ± 0.14 and the protein stability index (treatment: MLN4924 1 uM, 8 h) was 3.38 ± 0.18. For DAASLRRQIIKLNRRLQLLEEENK [MFF] the same measures were 3.35 ± 0.19 and 3.68 ± 0.55. For DCLQLIADSETPTIQKGSYTFVPW [TNFSF13B] the same measures were 2.19 ± 0.28 and 2.2 ± 0.18. As for DDGRLLEYDTVTREVKVLLDQLRF [APMAP], the protein stability index reads like this: (treatment: DMSO) 2.62 ± 0.2; (treatment: MLN4924 1 uM, 8 h) 3.05 ± 0.38. With DEEVSGSSKTITAEIPDGPPVVAH [C18orf25], the protein stability index runs as follows: (treatment: DMSO) 5.35 ± 0.25; (treatment: MLN4924 1 uM, 8 h) 5.41 ± 0.22.

Regarding DFGSNCRFSHMSERDLQELSIQVE [ZMAT5], the protein stability index is 3.05 ± 0.49 (treatment: DMSO) and 2.91 ± 0.28 (treatment: MLN4924 1 uM, 8 h). On to DGAWCAGRNDLQQWIEVDARRLTR [CPXM2], for which the protein stability index by setting is: (treatment: DMSO) 3.48 ± 0.35; (treatment: MLN4924 1 uM, 8 h) 3.95 ± 0.52. As to DGLLGDNQIMPKTGFLIIILAIIA [MAGEA6], the protein stability index was determined as 2.86 ± 0.65 (treatment: DMSO) and 2.12 ± 0.46 (treatment: MLN4924 1 uM, 8 h). For DGRFEKRQGNPSWKKQQKCDECGK [ZNF396] the same measures were 5.03 ± 0.2 and 5.2 ± 0.11. In the case of DIKNPEITTNRFYGPQVNNISHTK [WASL], the protein stability index (treatment: DMSO) was found to be 3.19 ± 0.26 and the protein stability index (treatment: MLN4924 1 uM, 8 h) is 3.48 ± 0.41. On the same counts, the results for DIYILPSDNSGQVSPPESPTVTTS [BCL2L13] are 4.58 ± 0.27 and 4.5 ± 0.15. On to DKDKSDDRMARPSGRSGHNTRGTG [CSNK1G3], for which the protein stability index is, setting by setting: (treatment: DMSO) 5.6 ± 0.29; (treatment: MLN4924 1 uM, 8 h) 5.43 ± 0.52. On to DKLKIDLLPDGRHAVVEVEDVPLA [TAF7L], for which the protein stability index by setting is: (treatment: DMSO) 4.61 ± 0.15; (treatment: MLN4924 1 uM, 8 h) 4.8 ± 0.24.

As to DKPLPPPPPGSLSRTQEPSLGKQK [SOAT2], the protein stability index by setting is: (treatment: DMSO) 5.27 ± 0.28; (treatment: MLN4924 1 uM, 8 h) 5.41 ± 0.21.

Consider DLDLIQSTPFKPLALKTPPRVLTL [MFF], for which the protein stability index is, setting by setting: (treatment: DMSO) 2.31 ± 0.3; (treatment: MLN4924 1 uM, 8 h) 2.36 ± 0.34. For DLKQALPCVAESPTVHVEVHQRGS [TRIP13] the same measures were 4.51 ± 0.31 and 4.57 ± 0.11. For DLLHNVSQNIAAETRAEDPPWFEG [DFFB] the same measures were 3.753 ± 0.011 and 3.85 ± 0.13. For DLVFVIDGSKSLGEENFEVVKQFV [MATN2] the same measures were 2.38 ± 0.35 and 2.44 ± 0.49. As to DMKPITVGGKIVGSLCAIAGVLTI [KCNA4], the protein stability index by setting is: (treatment: DMSO) 2.88 ± 0.57; (treatment: MLN4924 1 uM, 8 h) 3.11 ± 0.32. DNEDYPLFRELWRYHFATGVWHQM [KLHDC10]: the protein stability index was found to be 2 ± 0.76 (treatment: DMSO) and 2.03 ± 0.46 (treatment: MLN4924 1 uM, 8 h). Consider DNLLLDAKGHVKLSDFGLCTGLKK [STK38L], for which the protein stability index came to 3.12 ± 0.1 (treatment: DMSO) and 3.38 ± 0.44 (treatment: MLN4924 1 uM, 8 h). On the same counts, the results for DNRCKLFDSPSLCSSSTRSVLKRP [CDC25A] are 3.48 ± 0.2 and 3.64 ± 0.28. Turning to DNSPTSNSLEGGTDATAFWWGEWT [ADAMTSL2], the protein stability index (treatment: DMSO) amounted to 3.62 ± 0.35. With DPQSGELPSERWNPTQNVRTILLS [CDC34], the protein stability index reads like this: (treatment: DMSO) 3.31 ± 0.35; (treatment: MLN4924 1 uM, 8 h) 3.62 ± 0.43. For DQVSACIPVFRLARRRKKILFYCH [ALG2] the same measures were 2.22 ± 0.47 and 2.24 ± 0.075. On to DRDMFFKICESLNVPVDDSLVKEL [EFHC1], for which the protein stability index is 3.22 ± 0.29 (treatment: DMSO) and 3.3 ± 0.18 (treatment: MLN4924 1 uM, 8 h). In the case of DRLEEQLPWLSLRALKFRERDALE [DNAAF3], the protein stability index reads like this: (treatment: DMSO) 3.4 ± 0.24; (treatment: MLN4924 1 uM, 8 h) 3.42 ± 0.19. Consider DRYSEGIKHVLQTFGPIPEFSRAT [CRYL1], for which the protein stability index (treatment: DMSO) was 3.06 ± 0.58 and the protein stability index (treatment: MLN4924 1 uM, 8 h) was found to be 3.36 ± 0.3. Consider DSFLVALDMDDGTLSFIVDGQYMG [SPSB1], for which the protein stability index by setting is: (treatment: DMSO) 2.64 ± 0.63; (treatment: MLN4924 1 uM, 8 h) 2.74 ± 0.41. Turning to DSGQNAWLSYRLLKASEPGLFAVG [PCDHGA10], the protein stability index (treatment: DMSO) is 2.14 ± 0.09 and the protein stability index (treatment: MLN4924 1 uM, 8 h) stood at 2.13 ± 0.063. Sequence DSMPQDLSEALKEATKEVHTQAEN [HMOX1] yielded a protein stability index (treatment: DMSO) of 5.39 ± 0.26 and a protein stability index (treatment: MLN4924 1 uM, 8 h) of 5.51 ± 0.19.

Sequence DSSSSCSDHCITSSDMMDSSSFSN [VDR] showed a protein stability index (treatment: DMSO) of 4.94 ± 0.28 and a protein stability index (treatment: MLN4924 1 uM, 8 h) of 5.01 ± 0.27. On the same counts, the results for DTERLDDFHLSIHSDMAAIVKAMA [DVL3] are 2.36 ± 0.2 and 2.49 ± 0.25. On the same counts, the results for DTVTEVTARMEMLIEELYAFMPAR [CBY2] are 2.38 ± 0.25 and 2.47 ± 0.48.

For the sequence DVARQLGKNNEFSRLVAGEYLSFF [PSD2], the protein stability index was determined as 2.26 ± 0.16 (treatment: DMSO) and 2.27 ± 0.44 (treatment: MLN4924 1 uM, 8 h). Regarding DVCISILHPPVDDPQSGELPSERW [CDC34], the protein stability index turned out to be 3.9 ± 0.28 (treatment: DMSO) and 4.01 ± 0.24 (treatment: MLN4924 1 uM, 8 h). For DVHDDVRLLSDATVEKDESHAGKV [FAM50A] the same measures were 5.52 ± 0.26 and 5.43 ± 0.23. DVPDLQSVCSCTCYRSQDYGGRSV [KCNK9]: the protein stability index stood at 2.5 ± 0.36 (treatment: DMSO) and 2.81 ± 0.67 (treatment: MLN4924 1 uM, 8 h). Turning to DVTADSKVLEALKLKGAEVTYMNM [PLD5], the protein stability index reads like this: (treatment: DMSO) 3.57 ± 0.21; (treatment: MLN4924 1 uM, 8 h) 3.44 ± 0.29. DYAHGFGNISGEFWLGNEALHSLT [TNXB] had a protein stability index (treatment: DMSO) of 2.43 ± 0.73 and a protein stability index (treatment: MLN4924 1 uM, 8 h) of 2.82 ± 0.57. With DYELEDETRPAKRITITESNMKSR [WEE1], the protein stability index is, setting by setting: (treatment: DMSO) 4.74 ± 0.35; (treatment: MLN4924 1 uM, 8 h) 5.16 ± 0.29. As for DYKDRSVFGVPLTVNVQRTGQPLP [DLC1], the protein stability index turned out to be 3.62 ± 0.069 (treatment: DMSO) and 3.52 ± 0.17 (treatment: MLN4924 1 uM, 8 h). For DYSFLSLGVYSALREIAFTRQLHE [ATE1] the same measures were 2.99 ± 1.3 and 2.68 ± 0.94.

EALLDRESENASLREKLRLREAEI [LRRC45] had a protein stability index (treatment: DMSO) of 4.77 ± 0.26 and a protein stability index (treatment: MLN4924 1 uM, 8 h) of 4.89 ± 0.083.

For the sequence ECHIVVLTDDDVVDWDEEYPPQMG [BTBD10], the protein stability index turned out to be 3.34 ± 0.29 (treatment: DMSO) and 3.73 ± 0.42 (treatment: MLN4924 1 uM, 8 h). For the sequence EDAHLTQYKKEPVTTRQVRTIVEE [KRT17], the protein stability index is 5.01 ± 0.37 (treatment: DMSO) and 5.01 ± 0.19 (treatment: MLN4924 1 uM, 8 h). For EDGEKAAREVKLLLLGAGESGKST [GNAI1] the same measures were 4.78 ± 0.25 and 5.28 ± 0.19. For EDLLAKEKDNSRRMLTDKEREMAE [LMNB1] the same measures were 5.6 ± 0.31 and 5.65 ± 0.28.

As for EDSESLRIKEVEHMTRHLEESEKA [LRRC45], the protein stability index was determined as 5.5 ± 0.23 (treatment: DMSO) and 5.51 ± 0.2 (treatment: MLN4924 1 uM, 8 h). For EDSVFEERPERRSGPPASYCAKLC [C8orf76] the same measures were 4.44 ± 0.29 and 4.6 ± 0.07. On to EEDLQSQSETQGLEGAQAPLAVEE [MAGEA10], for which the protein stability index is, setting by setting: (treatment: DMSO) 5.73 ± 0.14; (treatment: MLN4924 1 uM, 8 h) 5.75 ± 0.089. For the sequence EEDNELNLPNLAAAYSSILSSLGE [GCH1], the protein stability index by setting is: (treatment: DMSO) 3.68 ± 0.31; (treatment: MLN4924 1 uM, 8 h) 3.73 ± 0.16.
